Data: US20250215089A1 (HARBOUR BIOMED SHANGHAI, published 2025)

Columns and labels:
human CD40 [1] = target: T1, human CD40 (human, UniProt P25942 21-277); test: FACS, Raji cells
T1 construct: whole, on cells; also called hCD40; TNFRSF5
Experimental: (§1) The cells were incubated at 4° C. for 1 hours in the dark. After the incubation, the cells were rinsed twice by adding pre-chilled PBS at 100 μL/well, and centrifuged at 500 g at 4° C. for 5 minutes, and the supernatant was discarded. Then, a fluorescent secondary antibody (goat anti-human IgG (H+L) secondary antibody, Alexa Fluor® 488 conjugate, Invitrogen, #A11013, 1:1000 dilution) was added at 100 μL/well, and the cells were incubated at 4° C. for 30 minutes in the dark. The cells were washed twice with pre-chilled PBS at 200 μL/well, and centrifuged at 500 g at 4° C. for 5 minutes, and the supernatant was discarded. Finally, the cells were resuspended in pre-chilled PBS at 200 μL/well. The fluorescence signal values were read using a BD FACS CANTOII flow cytometer or ACEA NovoCyte flow cytometer, and the data were processed and analyzed using FlowJo v10 software (FlowJo, LLC).

human PD-L1 [2] = target: T2, human PD-L1 (human, UniProt Q9NZQ7 19-290); test: FACS, NCI-H226 cells
T2 construct: whole, on cells; also called hPD-L1; CD274
T2 sequence (Q9NZQ7 19-290): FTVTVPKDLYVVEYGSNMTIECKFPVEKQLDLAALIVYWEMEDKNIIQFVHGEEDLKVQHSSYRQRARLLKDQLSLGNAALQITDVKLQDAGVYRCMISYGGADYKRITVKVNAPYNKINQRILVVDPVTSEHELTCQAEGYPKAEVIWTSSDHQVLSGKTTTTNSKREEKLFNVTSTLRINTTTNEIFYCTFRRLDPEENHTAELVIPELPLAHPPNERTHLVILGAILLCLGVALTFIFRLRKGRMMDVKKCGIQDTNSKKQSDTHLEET
Experimental: (§2) Specifically, the cells expressing PD-L1 were digested and resuspended in PBS buffer containing 2% BSA. The cells were adjusted to a cell density of 1×10⁶ cells/mL, respectively. The cells were seeded in a 96-well V-bottom plate (Corning, #3894) at 100 μL/well, and the antibody to be tested at 2×final concentration with 4-fold concentration gradient dilution was then added at 100 μL/well. The cells were incubated at 4° C. for 2 hours in the dark. After the incubation, the cells were rinsed twice by adding pre-chilled PBS containing 2% BSA at 100 μL/well, and centrifuged at 500 g at 4° C. for 5 minutes, and the supernatant was discarded. […] The cells were washed twice by adding pre-chilled PBS containing 2% BSA at 100 µL/well, and centrifuged at 500 g at 4° C. for 5 minutes, and the supernatant was discarded. Finally, the cells were resuspended in pre-chilled PBS buffer containing 2% BSA at 200 μL/well. The fluorescence signal values were read using a BD FACS CANTOII flow cytometer or ACEA NovoCyte flow cytometer, and the data were processed and analyzed using FlowJo v10 software (FlowJo, LLC).

human PD-L1 [3] = target: T2, human PD-L1; test: cell-based or functional assay
human CD40 [4] = target: T1, human CD40; test: cell-based or functional assay
human CD40 [5] = target: T1, human CD40; test: FACS, CHO-K1/hCD40 cells
Experimental: as §1

human PD-L1 [6] = target: T2, human PD-L1; test: FACS, CHO-K1/hPD-L1 cells
Experimental: as §2

cynomolgus monkey CD40 = target: T3, cynomolgus monkey CD40 (cynomolgus monkey); test: FACS, CHO-K1/cyCD40 cells
T3 construct: whole, on cells; also called cyCD40
Experimental: as §1

cynomolgus monkey PD-L1 = target: T4, cynomolgus monkey PD-L1 (cynomolgus monkey); test: FACS, CHO-K1/cyPD-L1 cells
T4 construct: whole, on cells; also called cyPD-L1
Experimental: as §2

T1 sequence (P25942 21-277): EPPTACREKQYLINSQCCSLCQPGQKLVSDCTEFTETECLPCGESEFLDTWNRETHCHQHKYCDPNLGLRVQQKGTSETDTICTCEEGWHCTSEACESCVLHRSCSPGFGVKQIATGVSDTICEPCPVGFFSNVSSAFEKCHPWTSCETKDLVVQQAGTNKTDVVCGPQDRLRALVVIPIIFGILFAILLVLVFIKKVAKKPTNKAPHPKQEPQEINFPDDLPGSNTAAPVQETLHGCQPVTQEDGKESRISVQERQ

Row | EC50 (human CD40 [1]) [nM] | Maximum MFI (human CD40 [1]) [MFI] | EC50 (human PD-L1 [2]) [nM] | Maximum MFI (human PD-L1 [2]) [MFI] | EC50, Jurkat-NFAT-hPD1 reporter (human PD-L1 [3]) [nM] | Maximum (RLU), Jurkat-NFAT-hPD1 reporter (human PD-L1 [3]) [RLU] | EC50, HEK293-hCD40-NFκB reporter, + CHO-K1 (human CD40 [4]) [nM] | EC50, HEK293-hCD40-NFκB reporter, + CHO-K1/hPD-L1 (human CD40 [4]) [nM] | Maximum (RLU), HEK293-hCD40-NFκB reporter, + CHO-K1 (human CD40 [4]) [RLU] | Maximum (RLU), HEK293-hCD40-NFκB reporter, + CHO-K1/hPD-L1 (human CD40 [4]) [RLU] | EC50 (human CD40 [5]) [nM] | Maximum MFI (human CD40 [5]) [MFI] | EC50 (human PD-L1 [6]) [nM] | Maximum MFI (human PD-L1 [6]) [MFI] | EC50 (cynomolgus monkey CD40) [nM] | Maximum MFI (cynomolgus monkey CD40) [MFI] | EC50 (cynomolgus monkey PD-L1) [nM] | Maximum MFI (cynomolgus monkey PD-L1) [MFI] | Binder
1 | 1.46 | 7570 | 0.521 | 869 | 0.162 | 2910 | 0.234 | 0.0692 | 189000 | 271000 | 2.4 | 16400 | 1.12 | 19700 | 2.57 | 53000 | 0.714 | 4670 | PR007269 (bispecific antibody, human IgG1, kappa, VH of PR006246 (PD-L1) - GS_5 - heavy chain of CD40 IgG PR006511; human IgG1 L234A/L235A/G237A; also called PD-L1×CD40) heavy: QVQLVESGGGVVQPGMSLRLSCAASGFDFSSYGMYWVRQAPGKGQEWVASIRYTGTEKHYADSVKGRFTISRDNSKNTLYLEMNSLRVEDTAVYYCAKNRAIFGVIPDDSDIRGQGTMVTVSSGGGGSQVQLVQSGAEVKKPGASVKVSCKASGYTFAGYYMYWVRQAPGQGLEWMGWINPDSGAPTYAQKFQGRVTMTRDTSISTAYMELSRLRSDDTAVYYCAREKIYYGSGNYYPSFDYWGQGTLVTVSSASTKGPSVFPLAPSSKSTSGGTAALGCLVKDYFPEPVTVSWNSGALTSGVHTFPAVLQSSGLYSLSSVVTVPSSSLGTQTYICNVNHKPSNTKVDKKVEPKSCDKTHTCPPCPAPEAAGAPSVFLFPPKPKDTLMISRTPEVTCVVVDVSHEDPEVKFNWYVDGVEVHNAKTKPREEQYNSTYRVVSVLTVLHQDWLNGKEYKCKVSNKALPAPIEKTISKAKGQPREPQVYTLPPSREEMTKNQVSLTCLVKGFYPSDIAVEWESNGQPENNYKTTPPVLDSDGSFFLYSKLTVDKSRWQQGNVFSCSVMHEALHNHYTQKSLSLSPGK light: DIQLTQSPSFLSASVGDRVTITCRASQGISSYLAWYQQKPGKAPKLLIYAASTLQSGVPSRFSGSGSGTEFTLTISSLQPEDFATYYCQQLNNYPWTFGQGTKVEIKRTVAAPSVFIFPPSDEQLKSGTASVVCLLNNFYPREAKVQWKVDNALQSGNSQESVTEQDSKDSTYSLSSTLTLSKADYEKHKVYACEVTHQGLSSPVTKSFNRGEC
2 | 1.43 | 7580 | 0.773 | 914 | 0.109 | 2520 | 0.238 | 0.0598 | 199000 | 333000 | 2.05 | 14300 | 1.39 | 19800 | 4.2 | 71300 | 0.89 | 4620 | PR007273 (bispecific antibody, human IgG1, kappa, VH of PR006245 (PD-L1) - GS_5 - heavy chain of CD40 IgG PR006495; human IgG1 L234A/L235A/G237A; also called PD-L1×CD40) heavy: QVQLVESGGGVVQPGMSLRLSCAASGFDFSSYGMYWVRQAPGKGQEWVASIRYTGTEKHYADSVKGRFTISRDNSKNTLYLEMNSLRVEDTAVYYCAKNRAIFGVVPDASDIRGQGTMVTVSSGGGGSQVQLVQSGAEVKKPGASVKVSCKASGYTFAGYYMYWVRQAPGQGLEWMGWINPDSGAPTYAQKFQGRVTMTRDTSISTAYMELSRLRSDDTAVYYCAREKIYYGSGNYYPSFDYWGQGTLVTVSSASTKGPSVFPLAPSSKSTSGGTAALGCLVKDYFPEPVTVSWNSGALTSGVHTFPAVLQSSGLYSLSSVVTVPSSSLGTQTYICNVNHKPSNTKVDKKVEPKSCDKTHTCPPCPAPEAAGAPSVFLFPPKPKDTLMISRTPEVTCVVVDVSHEDPEVKFNWYVDGVEVHNAKTKPREEQYNSTYRVVSVLTVLHQDWLNGKEYKCKVSNKALPAPIEKTISKAKGQPREPQVYTLPPSREEMTKNQVSLTCLVKGFYPSDIAVEWESNGQPENNYKTTPPVLDSDGSFFLYSKLTVDKSRWQQGNVFSCSVMHEALHNHYTQKSLSLSPGK light: DIQLTQSPSFLSASVGDRVTITCRASQGISSYLAWYQQKPGKAPKLLIYAASTLQSGVPSRFSGSGSGTEFTLTISSLQPEDFATYYCQQLASYPWTFGQGTKVEIKRTVAAPSVFIFPPSDEQLKSGTASVVCLLNNFYPREAKVQWKVDNALQSGNSQESVTEQDSKDSTYSLSSTLTLSKADYEKHKVYACEVTHQGLSSPVTKSFNRGEC
